Source: patent publication US20250277059A1, “ANTIBODY USED TO TREAT CORONAVIRUS INFECTION” (priority 2022, published 2025)
Like-named read-outs stand apart in the source and are kept apart here.

Tests used:
[1] = target: Cynomolgus monkey TMPRSS2 expressed on cells (cynomolgus monkey); test: flow cytometry, Daudi transfectant
[2] = target: Human TMPRSS2 expressed on cells (human) (UniProt O15393); test: flow cytometry, Daudi transfectant
[3] = target: T1, Mouse TMPRSS2 expressed on cells (mouse, UniProt Q9JIQ8 1-490); test: flow cytometry, Daudi transfectant
[4] = target: Human TMPRSS2 expressed on cells (human) (UniProt O15393); test: flow cytometry, COS7 transfectant; Q1 23.3
[5] = target: T2, Human TMPRSS2 expressed on cells (human, UniProt O15393 1-492); test: cell-based or functional assay
[6] = target: T2, Human TMPRSS2 expressed on cells; test: cell-based or functional assay; remark: listed apart in the source
[7] = target: T3, Human TMPRSS2 recombinant protein, extracellular region (N-terminal His tag, C-terminal Strep-tag II) (human, UniProt O15393 106-492); test: SPR (BIAcore); rounded repeat of Table 1
T3 construct: also called Human TMPRSS2 recombinant proteins; extracellular region of human TMPRSS2

[8] = target: T2, Human TMPRSS2 expressed on cells; test: flow cytometry, Daudi transfectant
[9] = target: T1, Mouse TMPRSS2 expressed on cells; test: flow cytometry, Daudi transfectant; remark: listed apart in the source
TMPRSS-11D = target: T4, TMPRSS-11D (human, UniProt O60235); test: ELISA, Strep-tagged protein on streptavidin plate
T4 sequence (single chain, looked up): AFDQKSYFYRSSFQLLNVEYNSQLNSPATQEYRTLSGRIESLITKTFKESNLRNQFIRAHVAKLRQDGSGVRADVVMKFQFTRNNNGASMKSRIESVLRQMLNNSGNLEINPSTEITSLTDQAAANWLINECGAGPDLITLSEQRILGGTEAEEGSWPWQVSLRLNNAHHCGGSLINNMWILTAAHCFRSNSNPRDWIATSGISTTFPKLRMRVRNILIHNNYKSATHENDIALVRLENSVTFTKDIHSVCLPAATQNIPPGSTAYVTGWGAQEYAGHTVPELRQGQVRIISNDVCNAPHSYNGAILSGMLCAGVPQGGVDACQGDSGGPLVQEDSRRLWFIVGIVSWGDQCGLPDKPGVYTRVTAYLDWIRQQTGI

TMPRSS-11E = target: T5, TMPRSS-11E (human, UniProt Q9UL52); test: ELISA, Strep-tagged protein on streptavidin plate
T5 sequence (single chain, looked up): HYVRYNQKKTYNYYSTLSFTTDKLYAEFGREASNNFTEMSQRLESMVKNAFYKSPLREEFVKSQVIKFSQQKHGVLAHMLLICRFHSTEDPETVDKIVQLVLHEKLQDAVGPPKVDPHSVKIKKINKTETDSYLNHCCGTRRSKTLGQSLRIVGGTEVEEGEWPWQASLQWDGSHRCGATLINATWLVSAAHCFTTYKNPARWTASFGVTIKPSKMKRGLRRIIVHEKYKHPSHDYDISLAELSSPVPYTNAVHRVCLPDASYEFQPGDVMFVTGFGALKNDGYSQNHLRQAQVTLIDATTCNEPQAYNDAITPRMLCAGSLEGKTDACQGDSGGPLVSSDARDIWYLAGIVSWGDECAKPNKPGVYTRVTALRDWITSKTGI

TMPRSS-11F = TMPRSS-11F (human, UniProt Q6ZWK6); test: ELISA, Strep-tagged protein on streptavidin plate
TMPRSS-13 = target: T6, TMPRSS-13 (human, UniProt Q9BYE2); test: ELISA, Strep-tagged protein on streptavidin plate
T6 sequence (single chain, looked up): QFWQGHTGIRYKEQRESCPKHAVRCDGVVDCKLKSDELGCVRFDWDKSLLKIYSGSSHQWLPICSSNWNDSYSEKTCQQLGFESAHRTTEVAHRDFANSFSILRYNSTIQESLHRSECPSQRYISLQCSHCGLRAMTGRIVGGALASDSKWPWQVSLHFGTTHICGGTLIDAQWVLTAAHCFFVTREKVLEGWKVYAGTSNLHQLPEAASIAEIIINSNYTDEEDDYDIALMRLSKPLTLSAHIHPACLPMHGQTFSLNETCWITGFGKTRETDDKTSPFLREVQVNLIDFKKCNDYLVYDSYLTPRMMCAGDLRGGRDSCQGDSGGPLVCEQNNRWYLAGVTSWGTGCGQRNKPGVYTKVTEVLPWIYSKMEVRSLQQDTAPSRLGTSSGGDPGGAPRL

[10] = target: T3, Human TMPRSS2 recombinant protein, …; test: SPR (BIAcore), captured mAb, soluble human TMPRSS2 extracellular region
human TMPRSS2 [11] = target: T7, human TMPRSS2 (Homo sapiens, UniProt O15393); test: Competitive inhibition between anti-TMPRSS2 mAbs (flow cytometry); type: binding; settings: FIG. 3B
Target sequence in this assay (O15393 whole entry): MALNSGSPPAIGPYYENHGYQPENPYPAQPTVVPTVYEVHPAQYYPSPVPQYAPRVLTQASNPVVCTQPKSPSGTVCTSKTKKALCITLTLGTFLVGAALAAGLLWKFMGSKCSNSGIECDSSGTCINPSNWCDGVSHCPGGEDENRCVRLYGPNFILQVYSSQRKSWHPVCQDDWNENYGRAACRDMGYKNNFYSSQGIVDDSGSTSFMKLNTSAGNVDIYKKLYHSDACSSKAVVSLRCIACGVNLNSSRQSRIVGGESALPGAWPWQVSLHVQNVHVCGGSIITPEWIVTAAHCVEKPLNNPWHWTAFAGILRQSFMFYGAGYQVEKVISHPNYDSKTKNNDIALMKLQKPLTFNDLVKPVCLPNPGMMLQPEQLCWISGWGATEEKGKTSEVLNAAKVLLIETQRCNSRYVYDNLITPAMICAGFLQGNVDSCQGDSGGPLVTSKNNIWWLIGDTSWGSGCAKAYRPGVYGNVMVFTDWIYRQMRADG

[12] = test system: TMPRSS2 of non-human animal species; type: binding; settings: Table 3; species whose TMPRSS2 is bound
mouse TMPRSS2 = target: T8, mouse TMPRSS2 (Mus musculus, UniProt Q9JIQ8); test: FACS cross-reactivity to mouse TMPRSS2; type: binding; settings: FIGS. 10C and 10D
T8 construct: expressed in transfected cells; host or cells: Daudi

[13] = target: T9, amino acid sequence set forth in SEQ ID NO: 85 ([…]) (Homo sapiens, UniProt O15393); test: Epitope mapping by peptide array; type: binding; settings: 20-meric peptide array, FIGS. 5A to 5B
T9 construct: purchased JPT Peptide Technologies GmbH; host or cells: synthetic peptides on glass slide

[14] = test system: human TMPRSS family proteins; test: Binding properties to TMPRSS family; settings: FIG. 9
Description: The reactivity of anti-TMPRSS2 mAbs to extracellular regions of human TMPRSS family proteins was analyzed by ELISA method. To a streptavidin-coated 96-well plate (Thermo Scientific, 436014), 100 μl each of 78 nM Strep-tagged recombinant proteins in PBS was captured at room temperature for 2 hours and washed 5 times with PBST (0.1% Tween 20/PBS). Anti-TMPRSS2 mAbs (10 μg/mL), mouse IgG (Equitech-Bio, SLM66) or Ni-NTA-HRP (KPL, 24-01-01) as controls, diluted to 0.2% BSA in PBST was added thereto to incubate for 2 hours. After washing with PBST, the bound IgG was detected with 100 μl horseradish peroxidase Goat anti-mouse IgG antibody (BioLegend, Inc.) diluted to 1:15,000 in PBST at room temperature for 1 hour and washed with PBST. 100 μl TMB substrate solution (SeraCare Life Sciences, Inc. 5120-0077) was added to the well and allowed to color at room temperature for a few minutes. The reaction was stopped with 100 μl 2M H2SO4. The optical density (OD) was read at 450 nm while referring to OD with a microplate reader (ARVO ×3, PerkinElmer, Inc.).

human TMPRSS2 [15] = target: T7, human TMPRSS2; test: BIACore binding assay of anti-TMPRSS2 antibodies; settings: Table 1, mouse mAbs, 25° C.
Target sequence in this assay (O15393 106-492 limits assumed): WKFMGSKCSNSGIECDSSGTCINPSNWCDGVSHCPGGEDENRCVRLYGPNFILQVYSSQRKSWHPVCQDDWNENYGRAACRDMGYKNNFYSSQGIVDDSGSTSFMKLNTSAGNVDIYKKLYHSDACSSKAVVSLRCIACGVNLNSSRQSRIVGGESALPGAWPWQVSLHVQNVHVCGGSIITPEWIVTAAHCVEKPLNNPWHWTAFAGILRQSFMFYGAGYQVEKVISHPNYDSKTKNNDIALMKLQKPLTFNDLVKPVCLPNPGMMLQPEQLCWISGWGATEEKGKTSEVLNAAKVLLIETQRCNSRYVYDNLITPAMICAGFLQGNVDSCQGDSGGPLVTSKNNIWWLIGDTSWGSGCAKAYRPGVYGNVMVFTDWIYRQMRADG

[16] = target: T1, Mouse TMPRSS2 expressed on cells; test: flow cytometry, Daudi transfectant; remark: listed apart in the source

T1 sequence (Q9JIQ8 whole entry): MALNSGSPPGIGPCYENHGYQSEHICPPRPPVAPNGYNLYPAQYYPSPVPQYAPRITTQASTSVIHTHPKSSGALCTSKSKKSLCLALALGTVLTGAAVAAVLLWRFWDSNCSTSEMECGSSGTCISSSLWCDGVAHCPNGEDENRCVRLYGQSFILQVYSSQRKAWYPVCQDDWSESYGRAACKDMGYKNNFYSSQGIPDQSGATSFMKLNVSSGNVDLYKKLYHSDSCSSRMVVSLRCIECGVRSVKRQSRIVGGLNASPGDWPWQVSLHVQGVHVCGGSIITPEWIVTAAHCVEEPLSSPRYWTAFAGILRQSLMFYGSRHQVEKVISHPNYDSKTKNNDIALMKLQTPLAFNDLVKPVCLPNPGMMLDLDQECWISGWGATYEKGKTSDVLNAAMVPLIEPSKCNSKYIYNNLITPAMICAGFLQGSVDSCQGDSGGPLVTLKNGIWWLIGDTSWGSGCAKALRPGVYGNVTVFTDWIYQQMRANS
T3 sequence (O15393 other isoform, or with tags, fused parts or gaps limits assumed): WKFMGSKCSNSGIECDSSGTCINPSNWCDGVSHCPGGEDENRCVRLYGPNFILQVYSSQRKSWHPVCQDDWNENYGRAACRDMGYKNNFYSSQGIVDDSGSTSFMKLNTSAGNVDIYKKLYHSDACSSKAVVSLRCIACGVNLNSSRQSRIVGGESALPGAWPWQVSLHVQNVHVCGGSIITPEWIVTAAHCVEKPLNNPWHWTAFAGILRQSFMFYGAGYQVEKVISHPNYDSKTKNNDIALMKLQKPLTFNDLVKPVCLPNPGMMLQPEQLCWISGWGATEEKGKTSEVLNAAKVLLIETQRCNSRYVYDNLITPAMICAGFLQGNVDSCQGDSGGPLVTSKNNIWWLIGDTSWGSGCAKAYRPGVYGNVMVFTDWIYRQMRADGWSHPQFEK
T2 sequence (O15393 whole entry): as the sequence (O15393 whole entry) above
T8 sequence (Q9JIQ8 whole entry): as the sequence (Q9JIQ8 whole entry) above
Sequence of Human TMPRSS2 expressed on cells (human) (O15393 whole entry): as the sequence (O15393 whole entry) above
Sequence of TMPRSS-11F (Q6ZWK6 54-438 limits assumed): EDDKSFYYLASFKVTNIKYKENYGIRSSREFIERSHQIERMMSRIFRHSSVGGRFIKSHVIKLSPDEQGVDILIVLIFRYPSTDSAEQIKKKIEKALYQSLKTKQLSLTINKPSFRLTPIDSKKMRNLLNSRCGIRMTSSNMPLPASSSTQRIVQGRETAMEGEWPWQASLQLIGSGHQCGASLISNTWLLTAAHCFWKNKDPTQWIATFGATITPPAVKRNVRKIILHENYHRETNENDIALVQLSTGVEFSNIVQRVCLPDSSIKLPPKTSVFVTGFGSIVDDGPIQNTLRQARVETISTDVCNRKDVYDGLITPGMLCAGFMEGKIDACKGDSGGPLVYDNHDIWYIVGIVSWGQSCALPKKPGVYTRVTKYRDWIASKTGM

mIgG (antibody)
Q2 (percent of cells GFP+ and stained) [1]: 1.51
Q2 (percent of cells GFP+ and stained) [2]: 0.12
Q2 (percent of cells GFP+ and stained) [3]: 0.011
Q2 (percent of cells GFP+ and stained) [4]: 0.015

B1: 2020_12 antibody (antibody, V domains shown)
VH: QVQLQQPGAELAKPGASVKLSCKASGYTFTSYWMHWVKQRPGQGLEWIGLIPPNSGSSNYNEKFKSKATLTVDKSSRTAYMQLSSLTSEDSAVYYCARWDYGSSYGYFDVWGTGTTVTVSS
VL: DIVLTQSPASLAVSLGQRATISCRASESVSTSGYSYMHWYQQKPGQPPKLLIYLASNLESGVPVRFSGSGSGTDFTLNIHPVEEEDAATYYCQHSRELPPTFGAGTKLELK
Activity: Calu-3 Inhibiton [5]: 66
IC90, First run; live SARS-CoV-2 infection of Calu-3 cells [6]: 0.23 mg/L
IC90, Second run; live SARS-CoV-2 infection of Calu-3 cells [6]: 0.13 mg/L
Q2 (percent of cells GFP+ and stained) [1]: 0.88
Kd [7]: 2.7 nM
Q2 (percent of cells GFP+ and stained) [8]: 99.9
Q2 (percent of cells GFP+ and stained) [9]: 48.5
binding result (TMPRSS-11D): no binding (tested: 10 µg/mL)
binding result (TMPRSS-11E): no binding (tested: 10 µg/mL)
binding result (TMPRSS-11F): no binding (tested: 10 µg/mL)
binding result (TMPRSS-13): no binding (tested: 10 µg/mL)
Kd [10]: 2.69 nM
koff [10]: 0.00176 s⁻¹
kon [10]: 654000 M⁻¹ s⁻¹

B2: 2020_12: mouse anti-human TMPRSS2 monoclonal antibody, IgG2c κ; VH SEQ ID NO: 25, VL SEQ ID NO: 26 (antibody, V domains shown)
VH: QVQLQQPGAELAKPGASVKLSCKASGYTFTSYWMHWVKQRPGQGLEWIGLIPPNSGSSNYNEKFKSKATLTVDKSSRTAYMQLSSLTSEDSAVYYCARWDYGSSYGYFDVWGTGTTVTVSS
VL: DIVLTQSPASLAVSLGQRATISCRASESVSTSGYSYMHWYQQKPGQPPKLLIYLASNLESGVPVRFSGSGSGTDFTLNIHPVEEEDAATYYCQHSRELPPTFGAGTKLELK
modifications: mouse IgG2c kappa constant regions; 2020_12 VH; 2020_12 VL
competition with 2228_15 antibody for binding to human TMPRSS2 (human TMPRSS2 [11]): competed
Cross-reactivity [12]: Mouse
cross-reactivity to mouse TMPRSS2 (mouse TMPRSS2): exhibited the cross-reactivity
binding to peptide of SEQ ID NO: 85 [13]: particularly bound
binding properties to the TMPRSS family [14]: bound specifically only to TMPRSS2
ka (human TMPRSS2 [15]): 654000 M⁻¹ s⁻¹
kd (human TMPRSS2 [15]): 0.001759 s⁻¹

B3: 1864_10: mouse anti-human TMPRSS2 monoclonal antibody, IgG2b κ; VH SEQ ID NO: 17, VL SEQ ID NO: 18 (antibody, V domains shown)
VH: QVQLQQSGPALVKPGASLKISCEASGYTFTYYSINWVKQRPGQGLEWIGWIFPGSGSTYYNEKFKGKATLTIDKSSSTAYMLLSSLTSEDSAVYFCARSDYGSAYGYFDVWGTGTTVTVSS
VL: DIVLTQSPASLAVSLGQRATISCRASKSVSTSGYSYMHWYQQKPGQPPKLLIYLASNLESGVPARFSGSGSGTDFTLNIHPVEEEDAATYYCQHSRDLPLTFGAGTKLELK
modifications: mouse IgG2b kappa constant regions; 1864_10 VH; 1864_10 VL
competition with 2228_15 antibody for binding to human TMPRSS2 (human TMPRSS2 [11]): competed
Cross-reactivity [12]: Mouse
cross-reactivity to mouse TMPRSS2 (mouse TMPRSS2): exhibited the cross-reactivity
binding to peptide of SEQ ID NO: 85 [13]: particularly bound
binding properties to the TMPRSS family [14]: bound specifically only to TMPRSS2
ka (human TMPRSS2 [15]): 563000 M⁻¹ s⁻¹
kd (human TMPRSS2 [15]): 0.002894 s⁻¹

B4: 2114_16 antibody (antibody, V domains shown)
VH: EVQLQQSGPELVKPGASVKISCKASGYTFTDYYMNWVKRRHGKSLEWIGNINPNNGGTSYNQKFKGKATLTVDKSSSTAYMELRSLTSEDSVVYYCAREGDLFPFAYWGQGTLVTVSA
VL: QAVVTQESALTTSPGETVTLTCRSSIGTVTTSNFANWVQEKPDHLFTGLIGASNNRAPGVPARFSGSLIGDKAALTITGAQTEDEAIYFCALWFSNHWVFGGGTKLTVL
notes: also called 2114 antibody
Activity: Calu-3 Inhibiton [5]: 47.6
IC90, First run; live SARS-CoV-2 infection of Calu-3 cells [6]: 1.5 mg/L
IC90, Second run; live SARS-CoV-2 infection of Calu-3 cells [6]: 3.4 mg/L
Kd [7]: 1 nM
binding result [16]: no binding (tested: 1 µg/mL)
Kd [10]: 1.04 nM
koff [10]: 0.000591 s⁻¹
kon [10]: 570000 M⁻¹ s⁻¹

B5: 1831_15 antibody (antibody, V domains shown)
VH: QVQLQQPGAELVKPGASVKLSCKASGYSFTTYWMHWVRQRPGQGLEWIGIIHPNSGTTNYNEKFKSKASLTVDKSSSTAYMQLSSLTSEDSAVYYCARLLWDYFDYWGQGTTLTVSS
VL: DIVMSQSPSSLAVSAGEKVTMSCKSSQSLLNSRTRKNFLAWYQQKPGQSPKLLIYWASTRESGVPDRFTGSGSGTDFTLTISSVQAEDLAVYYCKQSYNLYTFGGGTKLEIK
Activity: Calu-3 Inhibiton [5]: 44.8
Kd [7]: 0.42 nM
binding result [16]: no binding (tested: 1 µg/mL)
Kd [10]: 0.418 nM
koff [10]: 0.000236 s⁻¹
kon [10]: 563000 M⁻¹ s⁻¹
